According to the domain aggregation screens of Martell et al. (2025):

Experiment: soluble fraction after stress (log2 fold change); higher = more stays soluble; pooled small domains, quantitative proteomics
Settings: stress: 75 degC
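Note: 20 min heating vs room temperature control held 20 min.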

HMAKDEYGLTSNQRAFADEYIRNKGNATQAYLFAYPHIKKENTAAVNASRLLRNAKVSKYIADRTKEIL
soluble fraction (log2): -0.103

HMFTDAEIKQFAAAAVEVTKIQQDSTISAADKQPKMLAVVQSSGLPPEKFNQIGQAAAADPALQQRIQA
soluble fraction (log2): 0.038

HMDVQPTTTKTMFYTVQQGETLFSISRKFGISVEEITKKNPLASSGLTVGMELLLPEKKEINSTIQS
soluble fraction (log2): 0.0149

HMADFIGMNATVTERIFPQGFGRISFVYEGNSISEPARSEDGKEIPTGTSVVVLEVRDKVYIVQPL
soluble fraction (log2): -2.35

HMPKIPRLTLTETAGIMGVSQRALALAIQQGMYSWAQALPGRNKKRPIYFINAITFAKAQGIDLEEYK
soluble fraction (log2): -1.13

HMTYNIPEHYQTIDVKEYVRKLVSDGDSDQIGRVEMELTEFETRNLFPVLKVLIYIIDTMRK
soluble fraction (log2): -3

HMIGGEDEILKVVLEVLEEKPEAIEQYKNGRTNIVDFLVGQVMKKTRGQANPATTREFMIREIEK
soluble fraction (log2): -0.522

HMEPGEVQVDGLRFIAQPQERNDFEVALEQFRAGNFAAARKSFAAFINTYKQSGYLPSARFW
soluble fraction (log2): 0.0135

HMRQQSLHSLYRDHHSWLQNWLRRQLGNTWDAADLSQDTFIKVLASSQSVAEIREPRAYLLTVGKRL
soluble fraction (log2): -0.294

HMEPVDYEALRKELMQKVMGLFTQSRDVGIQILSSFGAKKLSDVPDDKLVAFAASVDKALAG
soluble fraction (log2): -0.193

HMALLSNTVDELHAGMRLDSYLFESGLYPSRSFAVKQIEAGKVFLNGDAVTKKTLVSNGDFIVYELEE
soluble fraction (log2): -0.854

HMSVALSENIKTRRKALKMSQEYVAEQLDISRQAVAKWEAGKSEPTTENLVKLAALFEMSVSELVE
soluble fraction (log2): -0.969

HMFVTGTTIKKLREEKRMTQGELAQMIGVSDKAVSKWETGRGLPDISLLEPLSRALGISVAELFAGQH
soluble fraction (log2): -0.612

HMEEFDLNAYITKINSAATLNALKQAYAEANSAALSVKDKDAQRKIIVEKDKRKAELIQETAG
soluble fraction (log2): 0.453

HMAFDGIVLKNITNALKELINGKINKIQQSSKDNLTLSIYNQKSYNLYIDISANNYRVNLTTHSE
soluble fraction (log2): 0.126

HMIGRRLKVARASAGLSLRELAARMDGVVTPQAIGKYERNEDMPGSRALMALASALGVSEGYLLSD
soluble fraction (log2): -1.38

HMAEQDILQSVYPHIGGQDNVSRTISRNGTLYLMLKDASAVDLKAVKQVPGIADAALERGRLTLQLEE
soluble fraction (log2): -0.203

HMTRQEFIRKLQEALNGKLDAATIQDHLKFYDDYIIEEMRKGKSEQEVLELLGDPWAIAKTIVDAS
soluble fraction (log2): 0.669

HMDTIGSKVLAFLAGNLLDPTPFNYRFGYLYLNRTSKVIVEETDTYIDSGMRMTQEAVAEIMQKFAQ
soluble fraction (log2): -4.12

HMADGDIIPEGQRDATLASLAGSMRARGMTEAEILAALQVTNETRVRPPMALADLERIARSIGRYEPGK
soluble fraction (log2): 0.0569

HMPDPLYLINGKIVNKSDFNNIDPRSIQSIEVLKANKALEAFGNDGKNGVIKITLKSSNDQM
soluble fraction (log2): -0.104

HMAERVWASLLEIKNAVAIEDAKTLEDVDNSEKIAEERIAALNDDAKHPLAIAFIGKLRQDIAEKKIELA
soluble fraction (log2): 0.413

HMNKVAQFYRELVSTLSERLRNGERDIDALVEQARVRISQSGELTQSEIENVIRAVRRDLEEFALSYEE
soluble fraction (log2): -0.0274

HMDEWDPAILYVGLDYEDAAQIATRLATSGVPYRLSPDGTMITVPDDQVNNMRLTLAGEGFPH
soluble fraction (log2): -0.0325

HMNSLTVPDITNRTLAEASQVLLDMGLTPIPDAVAKDGVGDDVVYAQSPPPNVGAREGDVVTITYNPA
soluble fraction (log2): 0.452

HMITSELALVKLVVKGANRVEALRVAETFRARALDVTLSSFVFELTGKPSKLDAFIGLMRSLGDTEILKR
soluble fraction (log2): -4.17

HMYVSGVPAITSIERVSTPGRRVYAGYTTVPKVIGGMGVSILTTSRGVMTDAEARRQKVGGELLAKV
soluble fraction (log2): 0.234

HMVLFDLSEREKEVLKLLADGNSYKMIASRLEITYFTVNAHLKKIYEKLQVHSASEAVSVALRNSL
soluble fraction (log2): -1.19

HMERLKRVTLSLNQSNYSVTEIARRLQAITGIKDITVVEDEQAVYLKVDPATFDLTLAQQAV
soluble fraction (log2): -0.474

HMSEHLTLVVSDEDAGHRVDQFLVSRLAHMTRSQIQKLIKDGQVTIDTKLVRASTTVHTDNIVTIEFPPAV
soluble fraction (log2): -1.21

HMHSQVFTDPDKAKNAVVKLGAPLVVKADGLALGKGVIIAQNPQAAKEAVASVGSSGISSISVT
soluble fraction (log2): 0.126

HMRTIPDALIGRPYESVETAIVLEGLQAKRTEVFHPTIRPGTVIRLEPTSGSELLRDGVVEIFVSQGPETT
soluble fraction (log2): 0.157

HMIKSEERIQNIKEYILEFQFTYHRTPTMAQIAEAVGTVKSNVYKYLSEMEERGILTRNKREIEINDTIQ
soluble fraction (log2): -0.807

HMDKELILLWDRVKSKVWQMDIQDSQVANWFQRNYHLTVRLRDFDPPVPPDKFTAEQLASFIKDIERHT
soluble fraction (log2): -2.41

HMIQMRVKVPKNIAGGSLMGAHHFVKSALARTNPGGSTSNYKIQATDGTPLTLGDLTARQYDEVLIISG
soluble fraction (log2): -0.668

HMNTGFPIILETSDAANLTVGAPIMYRGVEVGKIRNMELNSLGDRVLIHILIGHKYQHLVRQNSEFWFSS
soluble fraction (log2): -4

HMSENDTILAKFVSVMGNKNLELVIFPDIAYLKGQVSNPEDKTKAETVAQSLLGGKPLVSLIEFE
soluble fraction (log2): -0.332

HMLSNKIEQLRKEKGYTFAKLSELSGISTGRLSDLATGKRNNPTMDTLIKLADALDVTLDELVGR
soluble fraction (log2): -0.26

HMVYNGYYAKSFNGYVVILNGDEKTVYEYTQIPIHLLPEDIRSSVMSGYYLENETDLYNFLENYS
soluble fraction (log2): -3.24

HMADLKVGFVHRAGSVLERELDDVLEALEMYRSALAIDPSHKPSLDALTRISQLADYREQAAEILEPLPR
soluble fraction (log2): -0.767

HMLTLSGPEHAVVRALWPEPELDFDVLIRKTGLPSAQLMTLAMQLEMKKIIRRLPGRRLALMDDIRR
soluble fraction (log2): -3.98

HMSNIVNYEVYVYQNDAWDLLARYPSEKRAEAIEYAKSTEFSLNRPTKVIRETYDLDTQKFQEALIYLSE
soluble fraction (log2): -0.743

HMQSHGSRIWTDITGNFTREASFIELAEGKVTLQLTDGRRTIISFEILSKKDQEYVLDIGDS
soluble fraction (log2): -2.77

HMETLEDHRKKTRQQLFDALSHLLQTSTFESLTMAKIAEEAGVGRTAVYNHFQDKEALLLAFITYETGQ
soluble fraction (log2): -1.74

HMLFVKLSDAQRSMFGAKLARDARIQSEYAQKLPSENYEVFGKALADMLLDETHFKTFYPLLVEYGYTQPK
soluble fraction (log2): -1.32

HMKDYKSSLQERVQAVGGGQLIYRVNREEGPDHSKTFYMDLFLGDRLIGTGSGRNKKQAEQQAAKEAIERG
soluble fraction (log2): -0.283

HMQEAGLITQRIREMREKENWTQEYMAEQLGMSENGYAKIERGESNLSLKRLQQIADIFEVESAELLK
soluble fraction (log2): 0.00448

HMRTDQYHYLAWKQVADELGIPFDEQVNERLRGVSRMASFDIILERYDGTMSDEEKIHWTDKKNEIYKSM
soluble fraction (log2): -0.603

HMGAVVSPMPGVILDIKVKEGDSVSEGQTVIILEAMKMENEIVSEFTGTVSAIRVKKGDTVDTDAVLVEI
soluble fraction (log2): -1.76

HMKTPIEFGSVYNDPVRYVIGMSIKSAESINQAIYDMMKIFGDENNMNKFDSLPDEQAVLDMVNSF
soluble fraction (log2): 0.0725

HMSSIGERISDVRKARGYTQDQLAERIHVSRQTISHWENERALPDFESIKQLSQVLGYDFSS
soluble fraction (log2): -0.123

HMDVNPETLSYYIERADISLDELRTSVKGIDLFLTGEKQPTFNQISNIAKKLNIPTGLLLINKPIEI
soluble fraction (log2): -0.645

HMDILPRMVASEMRAVGVPPERMTREEKGTVIRNLMNAGIHQMKGAVVEIARQLHLSEPTVYRYIKREKG
soluble fraction (log2): -0.664

HMHLKRQEAINLGAYLLGAELRIHRLSLEELGSERIDEMLAAINYKTLDDLLADIGLGNRPARFVARQLG
soluble fraction (log2): -1.86

HMSQYVPDPVLNAALVGYLDFRKQAGKPMTDYSIRLLLVDLAKLSGNPQEQAAILDQSTKNNWIGVYALG
soluble fraction (log2): -3.04

HMEGYLYLSESQNELILKNLKTPLKYNLYNASGKLIKKGNIKNTLDISELPKGVYIFTSSDNSFSKKFLKT
soluble fraction (log2): -1.55

HMKKNLELGLLPHEVKSILGEPDFIDTITDIDGIRYDMWSYTKLNVTKRLYFEDLFLVRMEE
soluble fraction (log2): -3.31

HMQISDSGELEKIVLQVIEENPKPAEQVRSGNEKAIGALVGGVMKATQGRADGGEVNRLLRQHLGL
soluble fraction (log2): 0.248

HMHQPPDLDDFEAFVGRVKPALLQALVATYGPVDGREATVDALSWAWEHWDRLADVDHPVGYLYRV
soluble fraction (log2): -0.0172

HMIPDMSLELAMSEQTSKGDLYGDLPNDKLALMFNAISKKVPHTDDHKRKMVAIQTILESRAS
soluble fraction (log2): -0.415

HMLDSGNPILPYKLSLLANVDIRTVRNAISAGELVAFKSEFDGEVYVENGSARRWLHGRRGFKPTLK
soluble fraction (log2): -2.56

HMKTGTTGLIGEIGVVKKALTPEGKVFVHGELWRAVSKTASPEGTLVQVIKINNLVLEVEKV
soluble fraction (log2): -2.98

HMINFLSKREIEVLRLVADGLSNRDVGQYLFISESTVKRHLSTIYEKLAVKSRTQAIDHARRADL
soluble fraction (log2): -3.6

HMKVEFTPAYLKKFKANKNAWKFYEAQTNTYKKQSAWYVISAKQEETRLRRLDLLIYDSENGIHIKPLRR
soluble fraction (log2): -2.74

HMDNEIRIPLPSLQRDGFSIGTREDDGSQLVRIMSAGSFGGMIRSFRLPEGMRIEGAKWEGEIVSIRL
soluble fraction (log2): -0.00847

HMSSSYTEMQLERFKELLNKETLLSSEKNELKNLISDFDKISEIVSPLVVGAYLQLKNEHIETINSLG
soluble fraction (log2): -0.507

HMSSDLLGVRVRRARARAGLTRRRLSLLSGVSERFLAQLESGQGNISIVLIRRVAAALGAELVELIGS
soluble fraction (log2): -0.555

HMITALLPGTVLIREFDGRDYHVTVATDGRFEMDGHKYPSLSAVAKHITGTQWSGPAFFGLN
soluble fraction (log2): -1.06

HMGGEGQIEIREREGIPAEAWVDGVMRGQTPLRVEHVSIGTRRVELRAEGRPPVAADVLVRPTVTALVELS
soluble fraction (log2): 0.263

HMISKRFQVDEENSNNRVDIFLANNLDSISRGIVQQLILDGKVLVNGETVKRNHLLKTNDEVDISFEI
soluble fraction (log2): 0.349

HMEGDAFAFTGDIQKDLLSITAVHPMRREAVDALIAKAGASWAIVEKLLAHGELTEAKHDGHLFYLRKF
soluble fraction (log2): -1.19

HMNMVSGHLQVKKGYYYAVLSFYDSKNKRHVKYISTGLPEKGNKRKAEAELVKIRNAFEPPAE
soluble fraction (log2): -0.516

HMKVRDTQYIIEAAISKNVIRKSKNIYYYGTDIIGRSLEDAIASLNDKKNQDIKMTILQEIES
soluble fraction (log2): -2.14

HMGGSIDITTAPPGAKIYLDADYYGKTPKRLENISAGTYRLHLLHPEKGEVYRSVTLNEKNGTLKIDENLN
soluble fraction (log2): 0.0541

HMARYSMLEEQLLQLINKHGTMSTPKLVEATGAPRSTVTYQLRKLLESGTIERTQPARSPKQSYRIKS
soluble fraction (log2): -0.416

HMDSESGAIIRRAVAQLAPKFRSTIVLRLIEGYSTEETAQILQLPVGTVLSRLARAKVQLMNLLTPYKEL
soluble fraction (log2): -0.0893

HMNFMDGFQSFFQESGAMNRPMTADVVSYRLPDGTVQQGNSTMRGLMDQYLKSIGQSPTTGVP
soluble fraction (log2): 0.0171
